Results as given in patent US11673916B2, “Neuroprotective peptides and methods of their use” (University of Pittsburgh—Of the Commonwealth System of …, priority 2020, dated 2023).

Columns and labels:
[1] = molecular target: T1, Kv2.1-mediated potassium currents (Rattus norvegicus, UniProt P15387); test: Whole-cell voltage clamp of Kv2.1-mediated potassium current densities with or without TBOA; assay type: cell-based; details: voltage step from -80 mV to 30 mV, mean±SEM (FIG. 4A)
T1 construct: endogenous in cells; host or cells: primary rat cortical neurons
T1 sequence (P15387 1-857): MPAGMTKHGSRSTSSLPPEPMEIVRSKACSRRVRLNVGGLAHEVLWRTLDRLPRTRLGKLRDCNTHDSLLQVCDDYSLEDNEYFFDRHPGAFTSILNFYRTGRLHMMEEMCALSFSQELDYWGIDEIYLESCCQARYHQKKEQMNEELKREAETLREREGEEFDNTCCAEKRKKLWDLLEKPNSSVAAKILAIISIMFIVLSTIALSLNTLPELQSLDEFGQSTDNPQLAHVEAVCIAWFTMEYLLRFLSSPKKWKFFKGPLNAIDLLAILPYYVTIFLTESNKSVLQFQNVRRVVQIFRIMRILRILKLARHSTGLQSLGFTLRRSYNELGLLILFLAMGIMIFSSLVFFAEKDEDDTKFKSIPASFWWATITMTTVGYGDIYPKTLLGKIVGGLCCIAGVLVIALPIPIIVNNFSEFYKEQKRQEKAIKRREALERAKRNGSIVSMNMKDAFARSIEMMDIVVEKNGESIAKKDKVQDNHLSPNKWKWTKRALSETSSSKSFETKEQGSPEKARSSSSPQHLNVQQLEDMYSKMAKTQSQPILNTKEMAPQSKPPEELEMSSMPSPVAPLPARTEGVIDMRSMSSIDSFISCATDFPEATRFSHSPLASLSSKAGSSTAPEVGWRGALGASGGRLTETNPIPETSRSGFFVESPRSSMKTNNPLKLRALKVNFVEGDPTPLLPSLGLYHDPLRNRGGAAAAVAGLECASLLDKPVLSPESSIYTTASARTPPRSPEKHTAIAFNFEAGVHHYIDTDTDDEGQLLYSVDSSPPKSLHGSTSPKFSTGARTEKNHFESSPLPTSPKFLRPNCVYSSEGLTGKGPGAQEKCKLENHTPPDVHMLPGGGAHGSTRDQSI

[2] = molecular target: T2, Kv2.1-VAPA association (Rattus norvegicus, UniProt P15387+Q9Z270); test: Proximity ligation assay (PLA) of Kv2.1-VAPA association in cortical neurons; assay type: cell-based; details: 10 μM peptide, 2-hour treatment, means+/-SEM (FIG. 3C)
T2 construct: endogenous in cells; host or cells: primary rat cortical neurons (untransfected, fixed and immunolabelled)
T2 sequence (P15387 1-857): T1 sequence (P15387 1-857)
T2 sequence (Q9Z270 2-249 limits assumed): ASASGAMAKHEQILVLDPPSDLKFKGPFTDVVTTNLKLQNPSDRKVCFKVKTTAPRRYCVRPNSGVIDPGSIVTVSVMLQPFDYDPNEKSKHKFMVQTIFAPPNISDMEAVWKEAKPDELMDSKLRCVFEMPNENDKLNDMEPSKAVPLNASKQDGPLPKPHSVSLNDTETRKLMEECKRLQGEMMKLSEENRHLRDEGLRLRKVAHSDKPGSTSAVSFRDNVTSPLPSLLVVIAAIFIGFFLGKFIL
Method: Duolink proximity ligation assay (PLA) technology (Sigma-Aldrich, St. Louis, Mo.) was utilized to assess in situ protein-protein interaction between Kv2.1 and vesicle-associated […] protein (VAMP)-associated protein A (VAPA). Primary cortical neurons on glass coverslips were treated in 24-well plates with vehicle (dH2O), TAT-Sc-2 (10 μM), or TAT-DP-2 (10 μM) for 2 hours at 37° C./5% CO2. Neurons were then rinsed with 2 mL ice-cold sterile PBS and then transferred to 1 mL 4% paraformaldehyde (PFA) in PBS for 20 minutes to fix. Coverslips were transferred to 1 mL 0.1 M glycine (in PBS) to quench fixation and rinsed three times in 1 mL PBS. […]
PLA puncta were imaged on a Nikon A1+ confocal microscope (Nikon, Tokyo, Japan) with a 60× objective. […] PLA puncta signals were then obtained by capturing 25 optical sections (0.5 μm) that constrained the entire Z-width of PLA-TRITC fluorescence as MAX-IP files. […] NIS-Elements AR object count feature was then utilized to analyze the quantity of PLA puncta per cell. […] As distinct local PLA puncta-TRITC auto-fluorescence (markedly different in appearance from PLA puncta) was noted, local background subtraction using a small ROI within this region was performed in a protocol similar to that described earlier (Glynn, et al., Nat Protoc. 1: 1287-1296, 2006). […]

[3] = 10 μM peptide + TBOA (60 μM), 3-5 hours after treatment

Row | Sequence | mean Kv2.1-mediated potassium current density [1, 3] | mean Kv2.1-mediated potassium current density ([1]; 10 μM peptide without TBOA) | PLA puncta per square micron of neuronal soma [2]
1 | YGRKKRRQRRRDFSSIST [TAT-Sc-2, TAT-linked scramble control peptide] | 130.80±9.43 pA/pF | 71.42±10.27 pA/pF | 0.10+/−0.06 #PLA puncta/sq. micron of cell soma
2 | YGRKKRRQRRRSIDSFTS [TAT-DP-2, TAT-linked declustering peptide 2] | 65.68±12.07 pA/pF | 66.86±4.76 pA/pF | 0.06+/−0.01 #PLA puncta/sq. micron of cell soma
